2 molecules from patent publication US20020199211A1 (CHILDREN S MEDICAL CENTER, published 2002) can be followed below.

Test [1] deals with Nck-GBT9 (full-length Nck in the bait vector pGBT9) (UniProt P04386 1-147; P16333 1-377). The experiment in a line: yeast two-hybrid (HF7c); - means no growth on selective medium. As for the experimental part:
(§1) Yeast transformation and colony analysis were performed according to the manufacturer's instructions (Matchmaker Two-Hybrid System Protocol, CLONTECH).

The target in test [2] is T1, full length WASP cloned into the bait vector pGBT9 (Gal4 binding domain fusion) (UniProt P04386 1-147; P42768 1-502).
T1 construct: also called WAS protein
The description is as above. As for the experimental part: as §1

B1: pGAD424 without insert (Gal4 activation domain alone) (other, UniProt P04386 768-881, looked up)
chain: ANFNQSGNIADSSLSFTFTNSSNGPNLITTQTNSQALSQPIASSNVHDNFMNNEITASKIDDGNNSKPLSPGWTDQTAYNAFGITTGMFNTTTMDDVYNYLFDDEDTPPNPKKE
notes: also called None (pGAD424)
Consider B1, for which the binding result in test [1] and in test [2] was “no binding” each time.

B2: human TRAF1 (amino acids 62-416) in pGAD424 (other, UniProt Q13077 62-416, looked up, not shown: large carriers)
chain: LQSISPGSRLRTQEKAHPEVAEAGIGCPFAGVGCSFKGSPQSVQEHEVTSQTSHLNLLLGFMKQWKARLGCGLESGPMALEQNLSDLQLQAAVEVAGDLEVDCYRAPCSESQEELALQHFMKEKLLAELEGKLRVFENIVAVLNKEVEASHLALATSIHQSQLDRERILSLEQRVVELQQTLAQKDQALGKLEQSLRLMEEASFDGTFLWKITNVTRRCHESACGRTVSLFSPAFYTAKYGYKLCLRLYLNGDGTGKRTHLSLFIVIMRGEYDALLPWPFRNKVTFMLLDQNNREHAIDAFRPDLSSASFQRPQSETNVASGCPLFFPLSKLQSPKHAYVKDDTMFLKCIVETST
notes: Control prey; also called tumor necrosis factor receptor-associated factor 1
As to B2, the binding result in test [1] and in test [2] was “no binding” each time.
